Results: a protein production outcome set (Wang et al. 2014)

Experiment: label from the status in PepcDB records
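Also: failed if final PepcDB status was selected cloned or expressed and not failed if soluble or beyond.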

MNKDFTFTIKSSCFDENYNPSENTRITTNFANLARGKSRQENLRNTLVMMDNRFNTLAYWDNPKANRYSVELEIISVEIDIEGNGDTFPAIEILKTNIVDKKTNERIEGIVGNNFSSYVRDYDFSVLLPEHNKSHPGFSTPDNFGDLHGKLFKCFTNSKFYKDNFNKQPVICLSVSSKNTYHRTGNQHPVLGIEYQQNEPSLTDHYFERMGLQARYFMPANSVAPLAFYFSGDLLNDYTNLELISTISTMETFQKIYRPEIYNANSAAGQYYQPNLNNQDHSLTKIVYDRVERSQLAIEQGKFTEEHFIKPYKNILEQWSAHYAR
protein production: not failed

MGIRNSKTFTSTDIATYYDVSEDHYMYFWDLNQSHSLHYGYWDASTKTFREALANINRVLAEKASITAGTRVLDAGCGVGGSSIWLAKNKQANVTGITVSKKQAARANTSAAAVNPGGTAVFDVQDYTNTPYHSESFDVVWAIESVCHAANKEDFIKEAYRLLKPGGQLIMADFFIVKDGNADDQRSIDAWGHGWAVPFFEKKDAFQHMLLKAGFNTADMIDSTEHIRRSAKRLYYAFFPGWIISKLYNLVNRRTTEFSKNNVYTAYYQYKTLKKELWKYYIVHAKK
protein production: failed

MISKFIEKRMLNMLDEWYSAMSKRKMNHVCTLKEKIDQHLPKIKKNTKLWMRYQLFQARHQLLFENQNGLDSLFDGLYGLEDKMDDELKYYLYFFSGLYEMVKTAPKHAVHHFKKAEQYLAAIHNTFEAADLYYQTAGAYYLMKSPPLSVQYVKKALHIYLHQFGYIKKVITCKLLLAVNYIDQERYEKAEQLFKEIIKKTQQLHDENLLCHAYYNLGFLKATEKKDQEALLYFRKVLKNQEFEMNSPVSYLHCVYESVRALFKTGNITEAKAVLQKGKELSEKVDIQTIYLKLKTLEALYTSAEDPYEQLLEYVLELEKIEAWVDLEVLLEDITEYYKKKDDFEKAAFFIMRG
protein production: failed

MSDNALTSSRRFGGIARLYGDSALAHFSQAHVCVVGVGGVGSWAVEALARTGIGRLTLIDLDNVAESNVNRQLHALTGDFGKAKVTALRERITQINPQCEVFEIEDFVTEDNLPEYFGKGFDFVIDAIDQVRVKAAMAAYFVERKQPFVLSGGAGGQKNPALIQTADLSRVTHDPLLANLRYTLRKRYGFSRDTKANMRVPCVYSTENIVPPQSREACSADAAPQGLSCAGYGASMLVTASFGLYCAQAAVEHIADKKLEHHHHHH
protein production: not failed

GLPRRAVTQLVEQPLVVVDFLAHITAQGGHAAVIGWKDLAYAGVIDSGGVCENIIAIPNPGTEPLNVAAVLCEGLDVVVYKGPEISLSPTRARPLLGKLRQGTAALVMVGTKVSSPALSVDAEITDYVGIGAGSGRIRGVEMQVRAVSKTHGVRSGKVLISRP
protein production: failed

MRTVTGAILAMNLEVKDFVHRDVEEADRRLREIGARKILLQLPDGLKPYAFDYFTYLSQRYDVILSSSPVYGACDIGPSYLYDRVDAIVQVGHSIMRNVKYPRPVIFIEHYRTVDVEDINTEALKNYRRIGLIYSIQYRPVADRVKRILESKGFEVIIGRSDRRMTYDGQVLGCNFSSVHSVEAEVEAFVIVSTGSFHALGSQISTERPVFLLDLNEMSLRSMEKEADTFIRKRYAQIYRAMDAKRICFLVDTRIGQRREKLARMLMDRARDLGKEAVLAYTDNISDQDIQNMGCDLAVYTGCPRVPIDDQDRFTVPVLTPAEFSMAFFKSSKRYVLDEIVSVDEFTDQLEHHHHHH
protein production: failed

MGEVWTWIISFLILITLLGLIVYQLISLADLEFDYINPYDSASRINFVVLPESILQGFLCVFYLVTGHWFMALLCVPYLYYNFHLYSRKQHLIDVTEIFNLLDWEKKKRLFKLAYIILTLFLTIFWLIYSTLDDYED
protein production: failed

MTPDSSVYKALLESTKAIPWKINWQTMAFEYIGPQIEALLGWPQGSWKSVEDWATRMHPEDQEWVVNFCVKQSECGVDHEADYRALHRDGHYVWIRDVVHVVRDDSGEVEALIGFMFDISLEHHHHHH
protein production: not failed

MAIHVGIIDQDPVRLVTPLLDHRTVSRHIIFIGDHTQTVIYQRLSDVLNKRNISTDFFEIPAGSNTSAIKSAIRELAETLKARGEEVKFNASCGLRHRLLSAYEVFRSYHWPIFVVEPNSDCLCWLYPEGNNDTQVQDRITIADYLTIFGARGEFNEHQLSPQLDQQLYQLGERWASNALELGPGLATLNYLATTCRKEQKLDVELSDKQQGYRELNLLLSDLVEAKIASYENGILTFINEEARRFANGEWLETLVHSTVKQIQDDMPTIQDRSLNVQVYRQLGEREVRNELDVATVVNNKLHIIECKTKGMRDDGDDTLYKLESLRDLLGGLQARAMLVSFRPLRHNDITRAEDLGLALIGPDELKDLKTHLTQWFKAAGGN
protein production: not failed
